PMC7642682, “SPOR Proteins Are Required for Functionality of Class A Penicillin-Binding Proteins in Escherichia coli” (mBio, 2020)

How the values were obtained:
[1] = biological target: T1, penicillin-binding protein 1B (PBP1B) (Escherichia coli, UniProt P02919 1-844); test: cell-based or functional assay
T1 sequence (looked up): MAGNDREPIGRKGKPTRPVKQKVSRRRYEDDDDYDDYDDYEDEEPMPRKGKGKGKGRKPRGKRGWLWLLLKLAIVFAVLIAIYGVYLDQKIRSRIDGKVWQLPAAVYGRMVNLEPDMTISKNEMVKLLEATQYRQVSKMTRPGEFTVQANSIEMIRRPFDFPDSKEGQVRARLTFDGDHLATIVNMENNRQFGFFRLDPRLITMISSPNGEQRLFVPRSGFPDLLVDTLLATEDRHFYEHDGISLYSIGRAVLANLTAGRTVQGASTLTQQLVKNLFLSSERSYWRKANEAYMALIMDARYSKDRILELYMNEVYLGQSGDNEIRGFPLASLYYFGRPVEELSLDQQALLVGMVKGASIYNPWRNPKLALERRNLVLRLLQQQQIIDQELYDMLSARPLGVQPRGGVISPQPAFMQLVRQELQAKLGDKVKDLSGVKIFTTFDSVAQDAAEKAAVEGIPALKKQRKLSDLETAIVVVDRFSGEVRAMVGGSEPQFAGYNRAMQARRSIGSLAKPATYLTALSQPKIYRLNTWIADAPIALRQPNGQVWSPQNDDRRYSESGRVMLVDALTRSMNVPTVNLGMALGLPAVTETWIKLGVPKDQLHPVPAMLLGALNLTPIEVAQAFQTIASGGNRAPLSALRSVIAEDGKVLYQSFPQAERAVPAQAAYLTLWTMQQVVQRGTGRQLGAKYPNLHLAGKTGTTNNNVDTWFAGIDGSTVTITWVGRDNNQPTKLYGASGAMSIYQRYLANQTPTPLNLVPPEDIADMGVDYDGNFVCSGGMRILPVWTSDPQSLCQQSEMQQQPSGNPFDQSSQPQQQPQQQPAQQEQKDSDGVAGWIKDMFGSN

[2] = biological target: T2, penicillin-binding protein 1A (PBP1A) (Escherichia coli, UniProt P02918 1-850); test: cell-based or functional assay
T2 sequence (looked up): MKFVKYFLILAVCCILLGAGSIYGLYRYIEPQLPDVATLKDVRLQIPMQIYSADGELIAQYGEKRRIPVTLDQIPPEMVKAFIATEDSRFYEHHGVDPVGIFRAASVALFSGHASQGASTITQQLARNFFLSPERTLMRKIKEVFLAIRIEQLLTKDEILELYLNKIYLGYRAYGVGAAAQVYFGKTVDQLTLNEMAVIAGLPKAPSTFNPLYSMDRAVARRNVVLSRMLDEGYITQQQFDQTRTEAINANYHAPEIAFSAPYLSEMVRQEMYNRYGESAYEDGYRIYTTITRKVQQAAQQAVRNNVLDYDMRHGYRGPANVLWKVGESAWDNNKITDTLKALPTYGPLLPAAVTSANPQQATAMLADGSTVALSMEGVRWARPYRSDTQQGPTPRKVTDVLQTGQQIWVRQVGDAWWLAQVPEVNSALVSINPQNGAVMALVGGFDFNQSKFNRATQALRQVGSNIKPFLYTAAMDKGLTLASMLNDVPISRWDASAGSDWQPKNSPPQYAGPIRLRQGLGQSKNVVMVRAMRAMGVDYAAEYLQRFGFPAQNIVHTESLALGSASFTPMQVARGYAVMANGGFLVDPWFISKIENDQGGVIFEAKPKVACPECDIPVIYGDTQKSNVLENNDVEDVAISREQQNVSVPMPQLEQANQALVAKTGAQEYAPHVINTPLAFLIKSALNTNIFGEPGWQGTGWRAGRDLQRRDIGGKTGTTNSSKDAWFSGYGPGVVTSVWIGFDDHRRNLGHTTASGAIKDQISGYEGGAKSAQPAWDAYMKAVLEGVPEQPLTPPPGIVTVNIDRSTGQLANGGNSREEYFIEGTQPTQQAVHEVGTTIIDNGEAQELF

Row | Binder | GTase rate of PBP1B (consumption of fluorescent dansyl-lipid II), fold over PBP1B alone; 0.5 uM PBP1B, 2 uM purified DamX [1] | GTase rate of PBP1B (consumption of fluorescent dansyl-lipid II), fold over PBP1B alone; 0.5 uM PBP1B, 2 uM purified DedD [1] | GTase rate of PBP1A (consumption of fluorescent dansyl-lipid II), fold over PBP1A alone; 0.5 uM PBP1A, 2 uM purified DedD [2]
1 | His-DamX (natural protein, Escherichia coli, UniProt P11557 1-428, looked up) MDEFKPEDELKPDPSDRRTGRSRQSSERSERTERGEPQINFDDIELDDTDDRRPTRAQKERNEEPEIEEEIDESEDETVDEERVERRPRKRKKAASKPASRQYMMMGVGILVLLLLIIGIGSALKAPSTTSSDQTASGEKSIDLAGNATDQANGVQPAPGTTSAENTQQDVSLPPISSTPTQGQTPVATDGQQRVEVQGDLNNALTQPQNQQQLNNVAVNSTLPTEPATVAPVRNGNASRDTAKTQTAERPSTTRPARQQAVIEPKKPQATVKTEPKPVAQTPKRTEPAAPVASTKAPAATSTPAPKETATTAPVQTASPAQTTATPAAGAKTAGNVGSLKSAPSSHYTLQLSSSSNYDNLNGWAKKENLKNYVVYETTRNGQPWYVLVSGVYASKEEAKKAVSTLPADVQAKNPWAKPLRQVQADLK | 2 fold |  | 
2 | His-DedD (natural protein, Escherichia coli, UniProt P09549 1-220, looked up) MASKFQNRLVGTIVLVALGVIVLPGLLDGQKKHYQDEFAAIPLVPKAGDRDEPDMMPAATQALPTQPPEGAAEEVRAGDAAAPSLDPATIAANNTEFEPEPAPVAPPKPKPVEPPKPKVEAPPAPKPEPKPVVEEKAAPTGKAYVVQLGALKNADKVNEIVGKLRGAGYRVYTSPSTPVQGKITRILVGPDASKDKLKGSLGELKQLSGLSGVVMGYTPN |  | 2.6 fold | 1.8 fold
